Target: human angiotensin-converting enzyme 2 (ACE2) (human) (UniProt Q9BYF1)
Experiment: FRET or BRET

Sequence of human angiotensin-converting enzyme 2 (ACE2) (human) (Q9BYF1 18-740): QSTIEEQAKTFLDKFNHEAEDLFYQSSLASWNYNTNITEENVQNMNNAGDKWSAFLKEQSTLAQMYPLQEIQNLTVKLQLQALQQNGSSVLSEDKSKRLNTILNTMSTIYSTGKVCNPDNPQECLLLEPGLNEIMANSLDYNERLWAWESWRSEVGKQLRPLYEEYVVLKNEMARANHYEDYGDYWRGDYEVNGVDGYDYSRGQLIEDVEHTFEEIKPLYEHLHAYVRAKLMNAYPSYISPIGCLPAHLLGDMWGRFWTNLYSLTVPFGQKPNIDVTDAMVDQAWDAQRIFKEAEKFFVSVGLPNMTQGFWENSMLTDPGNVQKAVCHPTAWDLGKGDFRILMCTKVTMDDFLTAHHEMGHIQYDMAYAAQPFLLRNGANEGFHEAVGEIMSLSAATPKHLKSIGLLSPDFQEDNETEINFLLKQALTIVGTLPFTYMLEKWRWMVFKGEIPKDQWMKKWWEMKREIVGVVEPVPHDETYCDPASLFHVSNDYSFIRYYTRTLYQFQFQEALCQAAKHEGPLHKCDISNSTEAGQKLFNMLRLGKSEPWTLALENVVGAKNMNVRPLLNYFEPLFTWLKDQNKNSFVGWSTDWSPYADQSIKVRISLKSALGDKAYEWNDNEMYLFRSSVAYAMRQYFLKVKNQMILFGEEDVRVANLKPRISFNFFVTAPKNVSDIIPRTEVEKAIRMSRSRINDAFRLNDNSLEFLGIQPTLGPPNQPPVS

SARS-CoV receptor-binding domain (RBD) (from UniProt P59594) (domain or fragment)
reduction in complex formation (FRET of SARS-CoV-2 RBD with ACE2): 70%
